PMC8018905
Where two headings read alike, the source gives them in different places.

Key:
[1] = molecular target: recombinant angiotensin-converting enzyme 2 (ACE2) (UniProt Q9BYF1); assay: electrochemical impedance spectroscopy
[2] = molecular target: recombinant angiotensin-converting enzyme 2 (ACE2) (UniProt Q9BYF1); assay: electrochemical impedance spectroscopy; remark: listed apart in the source

recombinant angiotensin-converting enzyme 2 (ACE2), sequence (Q9BYF1 18-740): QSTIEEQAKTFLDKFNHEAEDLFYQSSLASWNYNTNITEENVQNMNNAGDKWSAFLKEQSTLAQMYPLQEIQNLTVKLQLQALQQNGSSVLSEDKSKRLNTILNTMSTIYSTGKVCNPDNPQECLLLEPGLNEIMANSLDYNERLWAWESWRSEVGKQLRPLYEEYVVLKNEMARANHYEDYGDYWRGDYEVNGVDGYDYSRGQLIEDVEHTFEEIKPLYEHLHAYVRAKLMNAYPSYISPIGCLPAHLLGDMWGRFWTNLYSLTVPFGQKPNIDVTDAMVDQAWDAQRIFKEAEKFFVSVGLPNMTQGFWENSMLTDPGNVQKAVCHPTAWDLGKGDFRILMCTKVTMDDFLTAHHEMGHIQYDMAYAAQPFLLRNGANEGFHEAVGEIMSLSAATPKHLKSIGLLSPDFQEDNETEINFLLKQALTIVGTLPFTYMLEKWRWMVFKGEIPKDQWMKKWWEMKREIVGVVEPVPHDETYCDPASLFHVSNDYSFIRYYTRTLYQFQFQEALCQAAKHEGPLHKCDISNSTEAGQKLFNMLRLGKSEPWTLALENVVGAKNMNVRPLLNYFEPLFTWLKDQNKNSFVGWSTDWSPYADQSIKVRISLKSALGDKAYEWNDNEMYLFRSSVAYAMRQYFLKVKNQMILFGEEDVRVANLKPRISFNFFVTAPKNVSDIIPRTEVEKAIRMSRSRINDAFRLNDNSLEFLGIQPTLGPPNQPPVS

Substance “recombinant SARS-CoV-2 S-protein receptor-binding domain (from UniProt P0DTC2) (domain or fragment; other documents disagree on this pair)” has an EC50 [1] of 5.1 µM and an EC50 [2] of 1.74 µM.
